Measurements: IntAct's records for PubMed 15385968

B1: DNA repair protein XRCC4 (Homo sapiens), Q13426 (parent)
chain: MERKISRIHLVSEPSITHFLQVSWEKTLESGFVITLTDGHSAWTGTVSESEISQEADDMAMEKGKYVGELRKALLSGAGPADVYTFNFSKESCYFFFEKNLKDVSFRLGSFNLEKVENPAEVIRELICYCLDTIAENQAKNEHLQKENERLLRDWNDVQGRFEKCVSAKEALETDLYKRFILVLNEKKTKIRSLHNKLLNAAQEREKDIKQEGETAICSEMTADRDPVYDESTDEESENQTDLSGLASAAVSKDDSIISSLDVTDIAPSRKRRQRMQRNLGTEPKMAPQENQLQEKENSRPDSSLPETSKKEHISAENMSLETLRNSSPEDLFDEI

Variants of: B1
Conditions: with pnkp_human PNKP

Row | effect of a mutation on the interaction | Variant
1 | disrupting interaction | T233A
